Results published in PMC6158489.
Values joined by “and” are separate entries in the source; they are usually repeats but may differ in a detail not shown here. Equal values may be shown once.

System: VpsR (Vibrio cholerae)
Test: EMSA

For PvpsL promoter fragment (-97 to +113), the Kd was 2220 nM and 1660 nM.
